Data taken from PMC6555819, “Comprehensive study of nuclear receptor DNA binding provides a revised framework for understanding receptor specificity”.

Assays:
PPARg:RXRa = PPARg:RXRa (Homo sapiens, UniProt P37231;P19793 full;full); assay: no ligand; PBM; 180 nM : 90 nM RXRa; PBS pH 7.4, 2% milk, 0.02% Triton X-100, 1 mM DTT, BSA, 0.4 mg/ml salmon testes DNA; conditions: tags: His kept;His cleaved; copies: 1;1; label: surface-attached array probe
RXRa = RXRa (Homo sapiens, UniProt P19793); assay: no ligand; PBM; 180 nM; PBS pH 7.4, 2% milk, 0.02% Triton X-100, 1 mM DTT, BSA, 0.4 mg/ml salmon testes DNA; conditions: tags: His cleaved; chain copies: 2; label: surface-attached array probe
RXRa, sequence (P19793 whole entry): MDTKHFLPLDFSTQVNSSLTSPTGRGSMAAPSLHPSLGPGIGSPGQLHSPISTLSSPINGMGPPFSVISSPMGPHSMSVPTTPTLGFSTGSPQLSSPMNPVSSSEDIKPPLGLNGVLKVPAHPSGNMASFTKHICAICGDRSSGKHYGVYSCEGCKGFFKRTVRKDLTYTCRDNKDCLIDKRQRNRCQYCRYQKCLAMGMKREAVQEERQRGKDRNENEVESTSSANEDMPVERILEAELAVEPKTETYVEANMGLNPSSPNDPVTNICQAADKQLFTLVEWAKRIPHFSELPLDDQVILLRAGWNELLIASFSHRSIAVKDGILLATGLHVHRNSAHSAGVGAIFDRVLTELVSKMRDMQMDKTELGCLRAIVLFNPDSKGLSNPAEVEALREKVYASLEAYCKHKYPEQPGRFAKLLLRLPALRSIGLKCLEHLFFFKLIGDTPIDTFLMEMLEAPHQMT
PPARa:RXRa = PPARa:RXRa (Homo sapiens, UniProt Q07869;P19793 full;full); assay: no ligand; PBM; 270 nM : 90 nM RXRa; PBS pH 7.4, 2% milk, 0.02% Triton X-100, 1 mM DTT, BSA, 0.4 mg/ml salmon testes DNA; conditions: tags: GST kept;His cleaved; copies: 1;1; label: surface-attached array probe
PPARa:RXRa, sequence (Q07869 whole entry, chain 1 of 2): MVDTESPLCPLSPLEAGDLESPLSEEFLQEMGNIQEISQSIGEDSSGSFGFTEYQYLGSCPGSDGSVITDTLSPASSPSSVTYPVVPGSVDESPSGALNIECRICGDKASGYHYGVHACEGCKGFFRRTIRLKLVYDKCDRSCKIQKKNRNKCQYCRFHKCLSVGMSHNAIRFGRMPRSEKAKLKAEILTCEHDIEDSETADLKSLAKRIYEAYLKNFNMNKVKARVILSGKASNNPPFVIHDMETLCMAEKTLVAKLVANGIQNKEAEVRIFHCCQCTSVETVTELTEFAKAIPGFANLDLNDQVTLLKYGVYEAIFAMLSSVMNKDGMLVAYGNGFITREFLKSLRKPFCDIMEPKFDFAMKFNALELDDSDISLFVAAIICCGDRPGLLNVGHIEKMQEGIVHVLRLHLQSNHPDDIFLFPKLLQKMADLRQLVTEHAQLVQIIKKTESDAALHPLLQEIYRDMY
PPARa:RXRa, sequence (P19793 whole entry, chain 2 of 2): as the sequence (P19793 whole entry) above
Method in brief: (§1)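 Binding buffer was PBS pH 7.4 with 2% milk, 0.02% Triton X-100, 1 mM DTT, 0.2 mg/mL BSA and 0.4 mg/ml salmon testes DNA. In it, ligand-free nuclear receptor dimers were incubated 1 h on custom Agilent 4×180K protein-binding microarrays carrying double-stranded probes. Antibodies against each partner (one per run) detected binding, and z-scores were calculated against random background probes after regression normalization of scanned fluorescence.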

LXRb:RXRa = LXRb:RXRa (Homo sapiens, UniProt P55055;P19793 full;full); assay: as above; conditions: tags: His kept;His cleaved; copies: 1;1; label: surface-attached array probe
LXRb:RXRa, sequence (P55055 whole entry, chain 1 of 2): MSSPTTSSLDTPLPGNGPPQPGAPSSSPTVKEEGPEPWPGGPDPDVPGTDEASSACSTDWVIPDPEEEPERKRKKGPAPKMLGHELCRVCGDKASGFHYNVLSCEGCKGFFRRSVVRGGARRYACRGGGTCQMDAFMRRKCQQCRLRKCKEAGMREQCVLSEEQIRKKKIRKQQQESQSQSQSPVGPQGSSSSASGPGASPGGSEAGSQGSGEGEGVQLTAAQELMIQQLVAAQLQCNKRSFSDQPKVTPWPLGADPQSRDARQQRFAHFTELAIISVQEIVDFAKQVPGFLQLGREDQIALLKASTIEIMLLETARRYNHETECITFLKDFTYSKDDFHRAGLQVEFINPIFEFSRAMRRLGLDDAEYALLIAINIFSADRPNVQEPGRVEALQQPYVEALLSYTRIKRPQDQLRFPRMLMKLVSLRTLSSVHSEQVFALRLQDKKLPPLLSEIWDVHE
LXRb:RXRa, sequence (P19793 whole entry, chain 2 of 2): as the sequence (P19793 whole entry) above
Method in brief: as §1

FXR:RXRa = FXR:RXRa (Homo sapiens, UniProt Q96RI1;P19793 full;full); assay: as above; conditions: tags: His kept;His cleaved; copies: 1;1; label: surface-attached array probe
FXR:RXRa, sequence (Q96RI1 whole entry, chain 1 of 2): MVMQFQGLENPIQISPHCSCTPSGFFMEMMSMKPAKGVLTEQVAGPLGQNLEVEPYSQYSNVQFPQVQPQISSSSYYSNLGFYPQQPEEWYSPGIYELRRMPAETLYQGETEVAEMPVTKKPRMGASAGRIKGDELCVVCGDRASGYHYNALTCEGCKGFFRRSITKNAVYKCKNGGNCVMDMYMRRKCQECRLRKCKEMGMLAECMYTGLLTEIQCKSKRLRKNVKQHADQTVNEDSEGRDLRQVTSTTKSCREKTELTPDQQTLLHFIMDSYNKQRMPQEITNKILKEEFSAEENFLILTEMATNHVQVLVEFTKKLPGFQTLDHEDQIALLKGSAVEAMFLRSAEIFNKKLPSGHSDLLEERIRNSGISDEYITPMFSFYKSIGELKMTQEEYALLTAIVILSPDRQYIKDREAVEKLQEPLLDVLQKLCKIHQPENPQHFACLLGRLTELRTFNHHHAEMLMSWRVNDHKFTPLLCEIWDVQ
FXR:RXRa, sequence (P19793 whole entry, chain 2 of 2): as the sequence (P19793 whole entry) above
Method in brief: as §1

VDR:RXRa = VDR:RXRa (Homo sapiens, UniProt P11473;P19793 full;full); assay: as above; conditions: tags: His kept;His cleaved; copies: 1;1; label: surface-attached array probe
VDR:RXRa, sequence (P11473 whole entry, chain 1 of 2): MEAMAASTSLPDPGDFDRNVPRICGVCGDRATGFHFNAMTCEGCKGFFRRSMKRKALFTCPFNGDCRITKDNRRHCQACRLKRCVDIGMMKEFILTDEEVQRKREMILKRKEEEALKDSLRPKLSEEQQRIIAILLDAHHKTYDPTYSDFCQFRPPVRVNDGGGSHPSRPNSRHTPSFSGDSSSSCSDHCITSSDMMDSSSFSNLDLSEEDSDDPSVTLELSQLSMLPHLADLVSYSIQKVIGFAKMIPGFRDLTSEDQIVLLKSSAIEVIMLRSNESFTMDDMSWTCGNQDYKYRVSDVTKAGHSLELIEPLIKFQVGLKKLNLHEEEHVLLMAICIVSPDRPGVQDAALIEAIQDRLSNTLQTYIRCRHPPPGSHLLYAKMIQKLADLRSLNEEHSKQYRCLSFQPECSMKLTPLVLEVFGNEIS
VDR:RXRa, sequence (P19793 whole entry, chain 2 of 2): as the sequence (P19793 whole entry) above
Method in brief: as §1

RARb:RXRa = RARb:RXRa (Homo sapiens, UniProt P10826;P19793 full;full); assay: as above; conditions: tags: His kept;His cleaved; copies: 1;1; label: surface-attached array probe
RARb:RXRa, sequence (P10826 whole entry, chain 1 of 2): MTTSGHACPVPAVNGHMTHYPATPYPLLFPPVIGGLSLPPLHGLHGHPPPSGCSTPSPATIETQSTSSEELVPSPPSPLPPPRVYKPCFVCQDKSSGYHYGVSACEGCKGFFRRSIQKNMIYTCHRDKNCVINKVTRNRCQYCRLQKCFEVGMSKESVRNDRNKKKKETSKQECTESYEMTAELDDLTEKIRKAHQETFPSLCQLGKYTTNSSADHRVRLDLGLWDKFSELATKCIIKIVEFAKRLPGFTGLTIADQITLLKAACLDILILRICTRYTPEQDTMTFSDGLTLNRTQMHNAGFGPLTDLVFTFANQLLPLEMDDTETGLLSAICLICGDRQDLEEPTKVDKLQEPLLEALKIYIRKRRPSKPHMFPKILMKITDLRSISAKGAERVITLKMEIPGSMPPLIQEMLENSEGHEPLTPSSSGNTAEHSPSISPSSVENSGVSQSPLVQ
RARb:RXRa, sequence (P19793 whole entry, chain 2 of 2): as the sequence (P19793 whole entry) above
Method in brief: as §1

RARg:RXRa = RARg:RXRa (Homo sapiens, UniProt P13631;P19793 full;full); assay: as above; conditions: tags: His kept;His cleaved; copies: 1;1; label: surface-attached array probe
RARg:RXRa, sequence (P13631 whole entry, chain 1 of 2): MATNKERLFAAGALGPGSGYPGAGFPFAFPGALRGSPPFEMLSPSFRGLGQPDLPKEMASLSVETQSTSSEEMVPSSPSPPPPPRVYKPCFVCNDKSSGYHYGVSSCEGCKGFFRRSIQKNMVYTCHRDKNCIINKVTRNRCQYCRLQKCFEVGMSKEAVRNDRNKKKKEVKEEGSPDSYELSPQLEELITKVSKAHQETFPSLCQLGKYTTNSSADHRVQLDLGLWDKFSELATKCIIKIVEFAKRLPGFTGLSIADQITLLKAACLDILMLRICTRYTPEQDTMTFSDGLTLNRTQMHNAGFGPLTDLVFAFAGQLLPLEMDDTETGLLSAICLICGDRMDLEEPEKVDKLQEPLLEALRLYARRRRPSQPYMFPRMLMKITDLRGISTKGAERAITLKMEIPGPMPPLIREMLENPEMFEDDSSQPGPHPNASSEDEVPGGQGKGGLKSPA
RARg:RXRa, sequence (P19793 whole entry, chain 2 of 2): as the sequence (P19793 whole entry) above
Method in brief: as §1

PPARg:RXRa, sequence (P37231 29-505, chain 1 of 2): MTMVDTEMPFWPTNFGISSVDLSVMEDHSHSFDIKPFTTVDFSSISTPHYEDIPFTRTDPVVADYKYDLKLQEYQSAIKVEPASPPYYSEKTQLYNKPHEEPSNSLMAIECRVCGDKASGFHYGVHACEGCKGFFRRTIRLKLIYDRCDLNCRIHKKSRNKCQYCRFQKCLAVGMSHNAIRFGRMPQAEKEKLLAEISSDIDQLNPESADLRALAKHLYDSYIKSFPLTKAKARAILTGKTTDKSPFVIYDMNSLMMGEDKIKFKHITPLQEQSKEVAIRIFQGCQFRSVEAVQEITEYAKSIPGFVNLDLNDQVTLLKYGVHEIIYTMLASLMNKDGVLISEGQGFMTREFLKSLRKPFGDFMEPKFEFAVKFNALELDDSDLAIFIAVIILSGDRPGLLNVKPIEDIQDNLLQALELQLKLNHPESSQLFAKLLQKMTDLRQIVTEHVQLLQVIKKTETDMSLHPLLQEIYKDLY
PPARg:RXRa, sequence (P19793 whole entry, chain 2 of 2): as the sequence (P19793 whole entry) above

Binder | binding signal (PPARg:RXRa) | binding signal (RXRa) | other results
NRC3_random_hg19_139_o1 (dsDNA) DNA 1: GCAGGATCGCTTGAGTCCAGAGTTTGAGACCAGCCTGCGATTGACAGCGTAGAATGAAGG DNA 2: CCTTCATTCTACGCTGTCAATCGCAGGCTGGTCTCAAACTCTGGACTCAAGCGATCCTGC | -0.51 PBM z-score against 500 random probes | -0.68 PBM z-score against 500 random probes | binding signal (PPARa:RXRa): -1.12 PBM z-score against 500 random probes
NRC3_wobSeed47_DR1_G20C_o1 (dsDNA) DNA 1: GCGGAACGAGGGCAAAGTTCATAGCATCTGTCGACGGCGATTGACAGCGTAGAATGAAGG DNA 2: CCTTCATTCTACGCTGTCAATCGCCGTCGACAGATGCTATGAACTTTGCCCTCGTTCCGC | 10.2 PBM z-score against 500 random probes | – | binding signal (LXRb:RXRa): 3.56 PBM z-score against 500 random probes
NRC3_wobSeed47_DR1_G12T_o1 (dsDNA) DNA 1: GCGGAACGAGGTCAAAGTTGATAGCATCTGTCGACGGCGATTGACAGCGTAGAATGAAGG DNA 2: CCTTCATTCTACGCTGTCAATCGCCGTCGACAGATGCTATCAACTTTGACCTCGTTCCGC | 10.5 PBM z-score against 500 random probes | 8.54 PBM z-score against 500 random probes | binding signal (PPARa:RXRa): 6.61 PBM z-score against 500 random probes; binding signal (FXR:RXRa): 8.06 PBM z-score against 500 random probes
NRC3_random_hg19_189_o1 (dsDNA) DNA 1: GCATCTGCCTTGCTCTTTCTACCTTTCAGTGTCTTTGCGATTGACAGCGTAGAATGAAGG DNA 2: CCTTCATTCTACGCTGTCAATCGCAAAGACACTGAAAGGTAGAAAGAGCAAGGCAGATGC | -1.57 PBM z-score against 500 random probes | -0.72 PBM z-score against 500 random probes | –
NRC3_wobSeed49_DR2_A17G_o1 (dsDNA) DNA 1: GCCAAACTAGGTCAAGGGGTCAAAGTCCGCTTCCCGGCGATTGACAGCGTAGAATGAAGG DNA 2: CCTTCATTCTACGCTGTCAATCGCCGGGAAGCGGACTTTGACCCCTTGACCTAGTTTGGC | 10.8 PBM z-score against 500 random probes | – | binding signal (VDR:RXRa): 6.63 PBM z-score against 500 random probes
NRC3_wobSeed66_DR2_A8G_o1 (dsDNA) DNA 1: GCAATACGGGGTCACTAGGCCAGAGTAGGTACGAATGCGATTGACAGCGTAGAATGAAGG DNA 2: CCTTCATTCTACGCTGTCAATCGCATTCGTACCTACTCTGGCCTAGTGACCCCGTATTGC | 10.2 PBM z-score against 500 random probes | 8.8 PBM z-score against 500 random probes | binding signal (PPARa:RXRa): 7.26 PBM z-score against 500 random probes; binding signal (LXRb:RXRa): 6.54 PBM z-score against 500 random probes; binding signal (FXR:RXRa): 7.97 PBM z-score against 500 random probes
NRC3_wobSeed46_DR1_C6T_o1 (dsDNA) DNA 1: GCTTATCAAGGTGAAAGGTCGTTGATGCACGCCTTGGCGATTGACAGCGTAGAATGAAGG DNA 2: CCTTCATTCTACGCTGTCAATCGCCAAGGCGTGCATCAACGACCTTTCACCTTGATAAGC | 10.9 PBM z-score against 500 random probes | – | binding signal (RARb:RXRa): 3.04 PBM z-score against 500 random probes
NRC3_wobSeed46_DR1_C6A_o1 (dsDNA) DNA 1: GCTTAACAAGGTGAAAGGTCGTTGATGCACGCCTTGGCGATTGACAGCGTAGAATGAAGG DNA 2: CCTTCATTCTACGCTGTCAATCGCCAAGGCGTGCATCAACGACCTTTCACCTTGTTAAGC | 10.4 PBM z-score against 500 random probes | – | binding signal (VDR:RXRa): 3.31 PBM z-score against 500 random probes
NRC3_random_hg19_123_o1 (dsDNA) DNA 1: GCGTGGAGAAAGTTCTGAGACTGAAGATGACTTTCCGCGATTGACAGCGTAGAATGAAGG DNA 2: CCTTCATTCTACGCTGTCAATCGCGGAAAGTCATCTTCAGTCTCAGAACTTTCTCCACGC | 0.25 PBM z-score against 500 random probes | – | binding signal (LXRb:RXRa): 0.02 PBM z-score against 500 random probes
NRC3_random_hg19_396_o1 (dsDNA) DNA 1: GCTTGTTGTGGTTGATGTTGTTCACTCTCAGTCTCCGCGATTGACAGCGTAGAATGAAGG DNA 2: CCTTCATTCTACGCTGTCAATCGCGGAGACTGAGAGTGAACAACATCAACCACAACAAGC | -0.98 PBM z-score against 500 random probes | – | binding signal (RARb:RXRa): 0.5 PBM z-score against 500 random probes
NRC3_random_hg19_393_o1 (dsDNA) DNA 1: GCTCCCAGCCACTCAGGAGGCTGAGGCAGGAGAATTGCGATTGACAGCGTAGAATGAAGG DNA 2: CCTTCATTCTACGCTGTCAATCGCAATTCTCCTGCCTCAGCCTCCTGAGTGGCTGGGAGC | -0.69 PBM z-score against 500 random probes | – | binding signal (FXR:RXRa): -1.65 PBM z-score against 500 random probes
NRC3_random_hg19_293_o1 (dsDNA) DNA 1: GCGGAGAGGTCTTAGGATGCATTGGAGGCACAGTGTGCGATTGACAGCGTAGAATGAAGG DNA 2: CCTTCATTCTACGCTGTCAATCGCACACTGTGCCTCCAATGCATCCTAAGACCTCTCCGC | 0.47 PBM z-score against 500 random probes | – | binding signal (VDR:RXRa): 0.06 PBM z-score against 500 random probes
NRC3_wobSeed5_DR0_A14T_o1 (dsDNA) DNA 1: GCCCTTACGGGTCTAGGTTATAGCACGGGTGGTACGGCGATTGACAGCGTAGAATGAAGG DNA 2: CCTTCATTCTACGCTGTCAATCGCCGTACCACCCGTGCTATAACCTAGACCCGTAAGGGC | 0.3 PBM z-score against 500 random probes | 0.15 PBM z-score against 500 random probes | binding signal (RARg:RXRa): 0.05 PBM z-score against 500 random probes
NRC3_random_hg19_207_o1 (dsDNA) DNA 1: GCGCAAAGGCTGCGGTGCAATCCTGCATTCTTGTTCGCGATTGACAGCGTAGAATGAAGG DNA 2: CCTTCATTCTACGCTGTCAATCGCGAACAAGAATGCAGGATTGCACCGCAGCCTTTGCGC | -0.83 PBM z-score against 500 random probes | – | binding signal (VDR:RXRa): -0.78 PBM z-score against 500 random probes; binding signal (FXR:RXRa): -0.69 PBM z-score against 500 random probes
NRC3_random_hg19_479_o1 (dsDNA) DNA 1: GCAAGTAAACAGCCCTCTAGCTTGGGTGGAAATGTGGCGATTGACAGCGTAGAATGAAGG DNA 2: CCTTCATTCTACGCTGTCAATCGCCACATTTCCACCCAAGCTAGAGGGCTGTTTACTTGC | -0.63 PBM z-score against 500 random probes | – | binding signal (LXRb:RXRa): -0.48 PBM z-score against 500 random probes
NRC3_wobSeed133_DR5_T12A_o1 (dsDNA) DNA 1: GCCGTCCAAGGACAATGCTAGGTCAGTGAAAGCATTGCGATTGACAGCGTAGAATGAAGG DNA 2: CCTTCATTCTACGCTGTCAATCGCAATGCTTTCACTGACCTAGCATTGTCCTTGGACGGC | 0.18 PBM z-score against 500 random probes | – | binding signal (FXR:RXRa): 0.29 PBM z-score against 500 random probes
NRC3_random_hg19_197_o1 (dsDNA) DNA 1: GCGCAACCTCTGCCTCTCAGGCTCAAGTGACCTTCCGCGATTGACAGCGTAGAATGAAGG DNA 2: CCTTCATTCTACGCTGTCAATCGCGGAAGGTCACTTGAGCCTGAGAGGCAGAGGTTGCGC | -0.35 PBM z-score against 500 random probes | – | binding signal (RARb:RXRa): 0.45 PBM z-score against 500 random probes; binding signal (RARg:RXRa): 0.42 PBM z-score against 500 random probes
NRC3_random_hg19_447_o1 (dsDNA) DNA 1: GCCTCTCTTTCTCTCTCTCTCTCTCTCTCTCTCTCTGCGATTGACAGCGTAGAATGAAGG DNA 2: CCTTCATTCTACGCTGTCAATCGCAGAGAGAGAGAGAGAGAGAGAGAGAGAAAGAGAGGC | -3.64 PBM z-score against 500 random probes | – | binding signal (RARg:RXRa): -0.31 PBM z-score against 500 random probes
NRC3_random_hg19_278_o1 (dsDNA) DNA 1: GCGCTACTTGGGAGGCTGAGATGGTAGAATCACTTGGCGATTGACAGCGTAGAATGAAGG DNA 2: CCTTCATTCTACGCTGTCAATCGCCAAGTGATTCTACCATCTCAGCCTCCCAAGTAGCGC | -0.02 PBM z-score against 500 random probes | -0.89 PBM z-score against 500 random probes | –
NRC3_random_hg19_399_o1 (dsDNA) DNA 1: GCATGAGATTTCACTGTGTTAGCCAGGATGGTCTCCGCGATTGACAGCGTAGAATGAAGG DNA 2: CCTTCATTCTACGCTGTCAATCGCGGAGACCATCCTGGCTAACACAGTGAAATCTCATGC | 0.22 PBM z-score against 500 random probes | -0.2 PBM z-score against 500 random probes | –
NRC3_wobSeed69_DR2_C6A_o1 (dsDNA) DNA 1: GCAGTAAAAGTTCACTAGGTAACGTAAGATTCAGCTGCGATTGACAGCGTAGAATGAAGG DNA 2: CCTTCATTCTACGCTGTCAATCGCAGCTGAATCTTACGTTACCTAGTGAACTTTTACTGC | 5.13 PBM z-score against 500 random probes | – | binding signal (VDR:RXRa): 3.55 PBM z-score against 500 random probes
NRC3_wobSeed69_DR2_T11G_o1 (dsDNA) DNA 1: GCAGTCAAAGGTCACTAGGTAACGTAAGATTCAGCTGCGATTGACAGCGTAGAATGAAGG DNA 2: CCTTCATTCTACGCTGTCAATCGCAGCTGAATCTTACGTTACCTAGTGACCTTTGACTGC | 10.2 PBM z-score against 500 random probes | 7.84 PBM z-score against 500 random probes | binding signal (RARb:RXRa): 5.88 PBM z-score against 500 random probes; binding signal (RARg:RXRa): 7.59 PBM z-score against 500 random probes
NRC3_random_hg19_404_o1 (dsDNA) DNA 1: GCACTTCGTGATCTGCCTGCCTTAGCCTCCCAAAGTGCGATTGACAGCGTAGAATGAAGG DNA 2: CCTTCATTCTACGCTGTCAATCGCACTTTGGGAGGCTAAGGCAGGCAGATCACGAAGTGC | -1.16 PBM z-score against 500 random probes | – | binding signal (RARb:RXRa): -0.25 PBM z-score against 500 random probes
